Source: patent US20240228543

B1: yeast SAGA DUB module (Ubp8/Sgf11/Sgf73 1-105/Sus1), construct lacking the Avi tag, 6xHis tag cleaved (protein)
chain 1: MSICPHIQQVFQNEKSKDGVLKTCNAARYILNHSVPKEKFLNTMKCGTCHEINSGATFMCLQCGFCGCWNHSHFLSHSKQIGHIFGINSNNGLLFCFKCEDYIGNIDLINDAILAKYWDDVCTKTMVPSMERRDGLSGLINMGSTCFMSSILQCLIHNPYFIRHSMSQIHSNNCKVRSPDKCFSCALDKIVHELYGALNTKQASSSSTSTNRQTGFIYLLTCAWKINQNLAGYSQQDAHEFWQFIINQIHQSYVLDLPNAKEVSRANNKQCECIVHTVFEGSLESSIVCPGCQNNSKTTIDPFLDLSLDIKDKKKLYECLDSFHKKEQLKDFNYHCGECNSTQDAIKQLGIHKLPSVLVLQLKRFEHLLNGSNRKLDDFIEFPTYLNMKNYCSTKEKDKHSENGKVPDIIYELIGIVSHKGTVNEGHYIAFCKISGGQWFKFNDSMVSSISQEEVLKEQAYLLFYTIRQVN
chain 2: MTEETITIDSISNGILNNLLTTLIQDIVARETTQQQLLKTRYPDLRSYYFDPNGSLDINGLQKQQESSQYIHCENCGRDVSANRLAAHLQRCLSRGARR
chain 3: MRSGDAEIKGIKPKVIEEYSLSQGSGPSNDSWKSLMSSAKDTPLQYDHMNRESLKKYFNPNAQLIEDPLDKPIQYRVCEKCGKPLALTAIVDHLENHCAGASGKS
chain 4: MTMDTAQLKSQIQQYLVESGNYELISNELKARLLQEGWVDKVKDLTKSEMNINESTNFTQILSTVEPKALEMVSDSTRETVLKQIREFLEEIVDTQ
Ub-AMC cleavage (yD1 cyclic peptide): yD1 did not inhibit activity of the yeast DUB module
Ub-AMC cleavage, 50 nM yeast DUB module with 2.5 µM yD1 (yD1 cyclic peptide): Rather than inhibition, yD1 produced a slight increase in cleavage rates

B2: human SAGA deubiquitinating module (USP22/ATXN7L3/ENY2/ATXN7), construct lacking the Avi tag, 6xHis tag cleaved (protein)
chain 1: MVSRPEPEGEAMDAELAVAPPGCSHLGSFKVDNWKQNLRAIYQCFVWSGTAEARKRKAKSCICHVCGVHLNRLHSCLYCVFFGCFTKKHIHEHAKAKRHNLAIDLMYGGIYCFLCQDYIYDKDMEIIAKEEQRKAWKMQGVGEKFSTWEPTKRELELLKHNPKRRKITSNCTIGLRGLINLGNTCFMNCIVQALTHTPLLRDFFLSDRHRCEMQSPSSCLVCEMSSLFQEFYSGHRSPHIPYKLLHLVWTHARHLAGYEQQDAHEFLIAALDVLHRHCKGDDNGKKANNPNHCNCIIDQIFTGGLQSDVTCQVCHGVSTTIDPFWDISLDLPGSSTPFWPLSPGSEGNVVNGESHVSGTTTLTDCLRRFTRPEHLGSSAKIKCSGCHSYQESTKQLTMKKLPIVACFHLKRFEHSAKLRRKITTYVSFPLELDMTPFMASSKESRMNGQYQQPTDSLNNDNKYSLFAVVNHQGTLESGHYTSFIRQHKDQWFKCDDAIITKASIKDVLDSEGYLLFYHKQFLEYE
chain 2: ERAADDVRGEPRRAAAAAGGAAAAAARQQQQQQQQQQPPPPQPQRQQHPPPPPRRTRPEDGGPGAASTSAAAMATVGERRPLPSPEVMLGQSWNLWVEASKLPGKDGTELDESFKEFGKNREVMGLCREDMPIFGFCPAHDDFYLVVCN
chain 3: MKMEEMSLSGLDNSKLEAIAQEIYADLVEDSCLGFCFEVHRAVKCGYFFLDDTDPDSMKDFEIVDQPGLDIFGQVFNQWKSKECVCPNCSRSIAASRFAPHLEKCLGMGRNSSRIANRRIANSNNMNKSESDQEDNDDINDNDWSYGSEKKAKKRKSDKNPNSPRRSKSLKHKNGELSNSDPFKYNNSTGISYETLGPEELRSLLTTQCGVISEHTKKMCTRSLRCPQHTDEQRRTVRIYFLGPSAVLPEVESSLDNDSFDMTDSQALISRLQWDGSSDLSPSDSGSSKTSENQGWGLGTNSSESRKTKKKKSHLSLVGTASGLGSNKKKKPKPPAPPTPSIYDDIN
chain 4: MVVSKMNKDAQMRAAINQKLIETGERERLKELLRAKLIECGWKDQLKAHCKEVIKEKGLEHVTVDDLVAEITPKGRALVPDSVKKELLQRIRTFLAQHASL
cleavage of nucleosomal H2B-Ub (200 nM hDUBm, 1 µM peptide) (hL1 cyclic peptide): With the exception of hD4, all of the cyclic peptide leads were potent inhibitors of nucleosomal H2B-Ub cleavage by the human DUB module
Ub-AMC cleavage with 1 µM hD1 (hD1 cyclic peptide): the USP22/DUB module has no detectable activity under these conditions
cleavage of nucleosomal H2B-Ub (200 nM hDUBm, 1 µM peptide) (hD1 cyclic peptide): With the exception of hD4, all of the cyclic peptide leads were potent inhibitors of nucleosomal H2B-Ub cleavage by the human DUB module
cleavage of nucleosomal H2B-Ub (200 nM hDUBm, 1 µM peptide) (hD4 cyclic peptide): also showed very weak inhibition of hDUBm on nucleosomal H2B-Ub
cleavage of nucleosomal H2B-Ub (200 nM hDUBm, 1 µM peptide) (hD2 cyclic peptide): With the exception of hD4, all of the cyclic peptide leads were potent inhibitors of nucleosomal H2B-Ub cleavage by the human DUB module
cleavage of nucleosomal H2B-Ub (200 nM hDUBm, 1 µM peptide) (hD5 cyclic peptide): With the exception of hD4, all of the cyclic peptide leads were potent inhibitors of nucleosomal H2B-Ub cleavage by the human DUB module
Ub-AMC cleavage over a range of yD1 concentrations (yD1 cyclic peptide): yD1 also did not inhibit the human DUBm
cleavage of nucleosomal H2B-Ub (200 nM hDUBm, 1 µM peptide) (hD3 cyclic peptide): With the exception of hD4, all of the cyclic peptide leads were potent inhibitors of nucleosomal H2B-Ub cleavage by the human DUB module

B3: USP27x alone (DUBprofiler panel) (protein)
chain: MCKDYVYDKDIEQIAKEEQGEALKLQASTSTEVSHQQCSVPGLGEKFPTWETTKPELELLGHNPRRRRITSSFTIGLRGLINLGNTCFMNCIVQALTHTPILRDFFLSDRHRCEMPSPELCLVCEMSSLFRELYSGNPSPHVPYKLLHLVWIHARHLAGYRQQDAHEFLIAALDVLHRHCKGDDVGKAANNPNHCNCIIDQIFTGGLQSDVTCQACHGVSTTIDPCWDISLDLPGSCTSFWPMSPGRESSVNGESHIPGITTLTDCLRRFTRPEHLGSSAKIKCGSCQSYQESTKQLTMNKLPVVACFHFKRFEHSAKQRRKITTYISFPLELDMTPFMASSKESRMNGQLQLPTNSGNNENKYSLFAVVNHQGTLESGHYTSFIRHHKDQWFKCDDAVITKASIKDVLDSEGYLLFYHKQVLEHESEKVKEMNTQAY
ubiquitin-rhodamine(110)-glycine cleavage with 1 µM hD1 (DUBprofiler) (hD1 cyclic peptide): USP27x, whose activity was reduced by ˜50%

B4: USP30 (protein)
chain: TERKKRRKGLVPGLVNLGNTCFMNSLLQGLSACPAFIRWLEEFTSQYSRDQKEPPSHQYLSLTLLHLLKALSCQEVTDDEVLDASCLLDVLRMYRWQISSFEEQDAHELFHVITSSLEDERDRQPRVTHLFDVHSLEQQSEITPKQITCRTRGSPHPTSNHWKSQHPFHGRLTSNMVCKHCEHQSPVRFDTFDSLSLSIPAATWGHPLTLDHCLHHFISSESVRDVVCDNCTKIEAKGTLNGEKVEHQRTTFVKQLKLGKLPQCLCIHLQRLSWSSHGTPLKRHEHVQFNEFLMMDIYKYHLLGHKPSQHNPKLNKNPGPTLELQDGPGAPTPVLNQPGAPKTQIFMNGACSPSLLPTLSAPMPFPLPVVPDYSSSTYLFRLMAVVVHHGDMHSGHFVTYRRSPPSARNPLSTSNQWLWVSDDTVRKASLQEVLSSSAYLLFYERVLSRMQHQSQECKSEE
ubiquitin-AMC cleavage with 1 µM hD1 (hD1 cyclic peptide): only a very modest (˜15%) effect on USP30

B5: CYLD (protein)
chain: MSSGLWSQEKVTSPYWEERIFYLLLQECSVTDKQTQKLLKVPKGSIGQYIQDRSVGHSRIPSAKGKKNQIGLKILEQPHAVLFVDEKDVVEINEKFTELLLAITNCEERFSLFKNRNRLSKGLQIDVGCPVKVQLRSGEEKFPGVVRFRGPLLAERTVSGIFFGVELLEEGRGQGFTDGVYQGKQLFQCDEDCGVFVALDKLELIEDDDTALESDYAGPGDTMQVELPPLEINSRVSLKVGETIESGTVIFCDVLPGKESLGYFVGVDMDNPIGNWDGRFDGVQLCSFACVESTILLHINDIIPALSESVTQERRPPKLAFMSRGVGDKGSSSHNKPKATGSTSDPGNRNRSELFYTLNGSSVDSQPQSKSKNTWYIDEVAEDPAKSLTEISTDFDRSSPPLQPPPVNSLTTENRFHSLPFSLTKMPNTNGSIGHSPLSLSAQSVMEELNTAPVQESPPLAMPPGNSHGLEVGSLAEVKENPPFYGVIRWIGQPPGLNEVLAGLELEDECAGCTDGTFRGTRYFTCALKKALFVKLKSCRPDSRFASLQPVSNQIERCNSLAFGGYLSEVVEENTPPKMEKEGLEIMIGKKKGIQGHYNSCYLDSTLFCLFAFSSVLDTVLLRPKEKNDVEYYSETQELLRTEIVNPLRIYGYVCATKIMKLRKILEKVEAASGFTSEEKDPEEFLNILFHHILRVEPLLKIRSAGQKVQDCYFYQIFMEKNEKVGVPTIQQLLEWSFINSNLKFAEAPSCLIIQMPRFGKDFKLFKKIFPSLELNITDLLEDTPRQCRICGGLAMYECRECYDDPDISAGKIKQFCKTCNTQVHLHPKRLNHKYNPVSLPKDLPDWDWRHGCIPCQNMELFAVLCIETSHYVAFVKYGKDDSAWLFFDSMADRDGGQNGFNIPQVTPCPEVGEYLKMSLEDLHSLDSRRIQGCARRLLCDAYMCMYQSPTMSLYK
ubiquitin-AMC cleavage with 1 µM hD1 (hD1 cyclic peptide): the hD1 peptide had no effect on USP7CD or CYLD activity

B6: USP7 catalytic domain (protein)
chain: KKHTGYVGLKNQGATCYMNSLLQTLFFTNQLRKAVYMMPTEGDDSSKSVPLALQRVFYELQHSDKPVGTKKLTKSFGWETLDSFMQHDVQELCRVLLDNVENKMKGTCVEGTIPKLFRGKMVSYIQCKEVDYRSDRREDYYDIQLSIKGKKNIFESFVDYVAVEQLDGDNKYDAGEHGLQEAEKGVKFLTLPPVLHLQLMRFMYDPQTDQNIKINDRFEFPEQLPLDEFLQKTDPKDPANYILHAVLVHSGDNHGGHYVVYLNPKGDGKWCKFDDDVVSRCTKEEAIEHNYGGHDDDLSVRHCTNAYMLVYIRESKLSEVLQAVTDHDIPQQLVERLQEEKRIEAQKRKERQE
ubiquitin-AMC cleavage with 1 µM hD1 (hD1 cyclic peptide): the hD1 peptide had no effect on USP7CD or CYLD activity
